We go through nine molecules from patent US20250206828A1, “ANTI-ADENOSINE RECEPTOR (A2aR) ANTIBODIES AND THE USE THEREOF” (Adept Therapeutics Inc., priority 2022, published 2025).

Like-named read-outs stand apart in the source and are kept apart here.

For test [1], the target named is T1, human adenosine A2A receptor (A2aR) (human, UniProt P29274 1-412). Description: flow cytometry on PBMC, donor human 1, isotype control.
The target in test [2] is T1, human adenosine A2A receptor (A2aR). Description: flow cytometry on PBMC, donor human 2, isotype control. On the technique in general: Flow cytometry measures light scatter and fluorescence of single cells or particles in a stream.
Test [3] has as its target cynomolgus adenosine A2A receptor (A2aR) (cynomolgus). Description: flow cytometry on PBMC, donor Cynomolgus 1, isotype control.
The target is the same in test [4]. Description: flow cytometry on PBMC, donor Cynomolgus 2, isotype control.
In test [5] the target is T1, human adenosine A2A receptor (A2aR). Description: cell-based or functional assay.
The target is the same in test [6]. Description: cell-based or functional assay. This is another data set of the same source.
Test [7] has as its target cynomolgus adenosine A2A receptor (A2aR) (cynomolgus). Description: flow cytometry on PBMC, donor Cynomolgus 1.
Test [8] shares this target. Description: flow cytometry on PBMC, donor Cynomolgus 2.
Test [9] has as its target T1, human adenosine A2A receptor (A2aR). Description: flow cytometry, HEK293-hA2aR cells, supernatant 1 ug/ml.
The target is the same in test [10]. Description: flow cytometry titration, HEK293-hA2aR cells, purified antibody.
Test [11] has the same target. Description: cell-based or functional assay. This is another data set of the same source.
Test [12] shares this target. Description: flow cytometry, HEK293-hA2aR cells, supernatant 1 ug/ml. The source holds these as a separate data set.

T1 sequence (P29274 whole entry): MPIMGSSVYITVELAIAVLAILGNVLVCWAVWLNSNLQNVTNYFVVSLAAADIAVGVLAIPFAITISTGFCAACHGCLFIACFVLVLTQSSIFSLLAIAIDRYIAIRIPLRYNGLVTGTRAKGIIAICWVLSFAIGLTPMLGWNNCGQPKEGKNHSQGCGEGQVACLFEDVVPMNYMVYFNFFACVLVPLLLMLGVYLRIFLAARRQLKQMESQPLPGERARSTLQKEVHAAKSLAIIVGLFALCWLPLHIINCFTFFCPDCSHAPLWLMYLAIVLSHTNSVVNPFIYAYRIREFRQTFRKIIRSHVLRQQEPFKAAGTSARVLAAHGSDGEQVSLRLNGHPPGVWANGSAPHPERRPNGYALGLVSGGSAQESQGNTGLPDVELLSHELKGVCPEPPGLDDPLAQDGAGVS

In test [1], “Anti-HEL isotype control (BioIntron) (antibody)” had a % of A2aR+ CD4+ T cells of 0.083%, a % of A2aR+ CD8+ T cells of 0.005%, a % of A2aR+ NK cells of 0.21% and a % of A2aR+ NKT cells of 0.11%. In test [2], this molecule showed a % of A2aR+ CD4+ T cells of 0.012%, a % of A2aR+ CD8+ T cells of 0.002%, a % of A2aR+ NK cells of 0.029% and a % of A2aR+ NKT cells of 0.058%. In [3], this molecule gave a % of A2aR+ CD4+ T cells of 0.086%, a % of A2aR+ CD8+ T cells of 0.009%, a % of A2aR+ NK cells of 0.46% and a % of A2aR+ NKT cells of 0.22%. In test [4], this molecule yielded a % of A2aR+ CD4+ T cells of 0.099%, a % of A2aR+ CD8+ T cells of 0.007%, a % of A2aR+ NK cells of 0.42% and a % of A2aR+ NKT cells of 0.045%.

B1: Hu3F6-H3/Hu3F6-L5 (antibody, human IgG1, V domains shown)
VH: EVQLVQSGAEVKKPGASVKVSCKTSGFAFTSYWMNWVRQAPGQGLEWIGRIDPSDSEAHYHHKFWGRATLTVDTSSSTVYMELSSLRSEDTAVYYCLRSLYGKGDYWGHGTTVTVSS
VL: DVVMTQTPLSLSVTPGQPASISCRSSQSLVHRNGNTYLEWYLQKPGQSPQLLIYKVSNRFSGVPDRFSGSGSGTDFTLKISRVEAEDVGVYYCYQGSHVPLTFGGGTKVEIK
notes: Human IgG1 FES (L234F, L235E, P331S) and human Ig kappa constant domains; also called Hu3F6 VH3/VL5; Hu3F6-VH3/VL5
Usually EC50 stands for the concentration giving half of the maximal effect. High values mean weaker potency, low ones greater potency. Consider B1, for which the “IC50 of blocking activity, cAMP-Glo, 300 nM NECA, HEK293-hA2aR cells, supernatant” value (“IC50 of blocking activity … supernatant” below) in [5] is 5.3 nM. In test [6], the “IC50 of blocking activity, cAMP-Glo, 1.25 uM NECA, HEK293-hA2aR cells, purified antibody” value amounted to 0.8 nM and the “IC50 of blocking activity, cAMP-Glo, 5 uM Adenosine, HEK293-hA2aR cells, purified antibody” value stood at 0.6 nM. Also, in test [7], the % of A2aR+ CD4+ T cells is 1.65%, the % of A2aR+ CD8+ T cells stood at 0.05%, the % of A2aR+ NK cells came out at 6.52% and the % of A2aR+ NKT cells was 1.06%. In test [8], this molecule registered a % of A2aR+ CD4+ T cells of 1.2%, a % of A2aR+ CD8+ T cells of 0.11%, a % of A2aR+ NK cells of 2.07% and a % of A2aR+ NKT cells of 0.45%. The same molecule displayed an MFI in [9] of 1900 MFI. The same molecule registered an EC50 in test [10] of 0.57 nM.

B2: Hu3F6-H3/Hu3F6-L3 (antibody, human IgG1, V domains shown)
VH: EVQLVQSGAEVKKPGASVKVSCKTSGFAFTSYWMNWVRQAPGQGLEWIGRIDPSDSEAHYHHKFWGRATLTVDTSSSTVYMELSSLRSEDTAVYYCLRSLYGKGDYWGHGTTVTVSS
VL: DVVMTQSPLSLPVTLGQPASISCRSSQSLVHRNGNTYLEWYQQRPGQSPRLLIYKVSNRFSGVPDRFSGSGSGTDFTLKISRVEAEDVGVYYCYQGSHVPLTFGGGTKVEIK
notes: Human IgG1 FES (L234F, L235E, P331S) and human Ig kappa constant domains; also called Hu3F6 VH3/VL3
B2: the “IC50 of blocking activity … supernatant” value in test [5] is 2 nM. The same molecule came in with an MFI in test [9] of 1930 MFI. The molecule also registered an EC50 in test [10] of 0.64 nM.

B3: Hu3F6-H5/Hu3F6-L3 (antibody, human IgG1, V domains shown)
VH: EVQLVQSGAEVKKPGASVKVSCKTSGFAFTSYWMNWVRQAPGQGLEWIGRIDPSDSEAHYAHKFWGRATLTVDKSSSTVYMELSSLRSEDTAVYYCLRSLYGKGDYWGHGTTVTVSS
VL: DVVMTQSPLSLPVTLGQPASISCRSSQSLVHRNGNTYLEWYQQRPGQSPRLLIYKVSNRFSGVPDRFSGSGSGTDFTLKISRVEAEDVGVYYCYQGSHVPLTFGGGTKVEIK
notes: Human IgG1 FES (L234F, L235E, P331S) and human Ig kappa constant domains; also called Hu3F6 VH5/VL3
Regarding B3, in [5], the “IC50 of blocking activity … supernatant” value stood at 1.3 nM. The MFI in [9] came to 2090 MFI. The EC50 in test [10] came to 0.5 nM.

B4: Hu3F6-H5/Hu3F6-L5 (antibody, human IgG1, V domains shown)
VH: EVQLVQSGAEVKKPGASVKVSCKTSGFAFTSYWMNWVRQAPGQGLEWIGRIDPSDSEAHYAHKFWGRATLTVDKSSSTVYMELSSLRSEDTAVYYCLRSLYGKGDYWGHGTTVTVSS
VL: DVVMTQTPLSLSVTPGQPASISCRSSQSLVHRNGNTYLEWYLQKPGQSPQLLIYKVSNRFSGVPDRFSGSGSGTDFTLKISRVEAEDVGVYYCYQGSHVPLTFGGGTKVEIK
notes: Human IgG1 FES (L234F, L235E, P331S) and human Ig kappa constant domains; also called Hu3F6 VH5/VL5; Hu3F6-VH5/VL5
Regarding B4, in [5], the “IC50 of blocking activity … supernatant” value was 0.9 nM. In test [6], the “IC50 of blocking activity, cAMP-Glo, 1.25 uM NECA, HEK293-hA2aR cells, purified antibody” value turned out to be 0.6 nM and the “IC50 of blocking activity, cAMP-Glo, 5 uM Adenosine, HEK293-hA2aR cells, purified antibody” value stood at 0.8 nM. In test [7], this molecule registered a % of A2aR+ CD4+ T cells of 4.76%, a % of A2aR+ CD8+ T cells of 0.15%, a % of A2aR+ NK cells of 5.71% and a % of A2aR+ NKT cells of 4.14%. Besides, in [8], the % of A2aR+ CD4+ T cells came to 10.6%, the % of A2aR+ CD8+ T cells is 0.41%, the % of A2aR+ NK cells was 2.92% and the % of A2aR+ NKT cells amounted to 4.28%. Further, the MFI in test [9] came to 1850 MFI. In addition, a half-maximal response in test [10] (EC50) required 0.59 nM.

B5: Hu3F6-H3/Hu3F6-L4 (antibody, human IgG1, V domains shown)
VH: EVQLVQSGAEVKKPGASVKVSCKTSGFAFTSYWMNWVRQAPGQGLEWIGRIDPSDSEAHYHHKFWGRATLTVDTSSSTVYMELSSLRSEDTAVYYCLRSLYGKGDYWGHGTTVTVSS
VL: DIVMTQTPLSLSVTPGQPASISCRSSQSLVHRNGNTYLEWYLQKPGQSPQLLIYKVSNRFSGVPDRFSGSGSGTDFTLKISRVEAEDVGVYYCYQGSHVPLTFGGGTKVEIK
notes: Human IgG1 FES (L234F, L235E, P331S) and human Ig kappa constant domains; also called Hu3F6 VH3/VL4
As for B5, the “IC50 of blocking activity … supernatant” value in test [5] came to 19.5 nM. Moreover, in test [9], the MFI was 1840 MFI. In test [10], this molecule returned an EC50 of 0.68 nM.

B6: Hu3F6-H5/Hu3F6-L4 (antibody, human IgG1, V domains shown)
VH: EVQLVQSGAEVKKPGASVKVSCKTSGFAFTSYWMNWVRQAPGQGLEWIGRIDPSDSEAHYAHKFWGRATLTVDKSSSTVYMELSSLRSEDTAVYYCLRSLYGKGDYWGHGTTVTVSS
VL: DIVMTQTPLSLSVTPGQPASISCRSSQSLVHRNGNTYLEWYLQKPGQSPQLLIYKVSNRFSGVPDRFSGSGSGTDFTLKISRVEAEDVGVYYCYQGSHVPLTFGGGTKVEIK
notes: Human IgG1 FES (L234F, L235E, P331S) and human Ig kappa constant domains; also called Hu3F6 VH5/VL4
Take B6: the “IC50 of blocking activity … supernatant” value in test [5] was found to be 7.8 nM. This molecule returned an MFI in test [9] of 1920 MFI. In addition, the EC50 in [10] is 0.52 nM.

B7: Hu3F6-H5/Hu3F6-L8 (antibody, human IgG1, V domains shown)
VH: EVQLVQSGAEVKKPGASVKVSCKTSGFAFTSYWMNWVRQAPGQGLEWIGRIDPSDSEAHYAHKFWGRATLTVDKSSSTVYMELSSLRSEDTAVYYCLRSLYGKGDYWGHGTTVTVSS
VL: DVVMTQSPLSLPVTPGEPASISCRSSQSLVHRNGNTYLEWYLQKPGQSPQLLIYKVSNRFSGVPDRFSGSGSGTDFTLKISRVEAEDVGVYYCYQGSHVPLTFGGGTKVEIK
notes: Human IgG1 FES (L234F, L235E, P331S) and human Ig kappa constant domains; also called Hu3F6 VH5/VL8
With B7, the “IC50 of blocking activity … supernatant” value in test [5] was 1.1 nM. In [9], this molecule showed an MFI of 1890 MFI. The molecule further showed an EC50 in [10] of 0.59 nM.

B8: Hu3F8-H6/Hu3F8-L5 (antibody, human IgG1, V domains shown)
VH: EVQLVQSGAEVKKPGESLRISCKASGFTFTRYWMNWVRQMPGKGLEWIGRIDPSDSETHYNHKFWGHATLSVDKSSSTVYLQWSSLKASDTAMYYCLRSLYGKGDYWGQGTTVTVSS
VL: DVVMTQSPLSLPVTPGEPASISCRSSQSIVHSNGNTYLEWYLQKPGQSPQLLIYKVSNRFSGVPDRFSGSGSGTDFTLKISRVEAEDVGVYYCYQGSHVPLTFGGGTKVEIK
notes: Human IgG1 FES (L234F, L235E, P331S) and human Ig kappa constant domains; also called Hu3F8 VH6/VL5
Take B8: the “IC50 of blocking activity … supernatant” value in test [11] turned out to be 1.5 nM. This molecule also returned an MFI in test [12] of 1900 MFI. In addition, the EC50 in test [10] was found to be 0.65 nM.
